Results taken from publication PMC6815410, “Characterization of Xi-class mycothiol S-transferase from Corynebacterium glutamicum and its protective effects in oxidative stress” (Microbial Cell Factories, 2019).

Legend:
MstX (NCgl1216) [1] = target: T1, MstX (NCgl1216) (Corynebacterium glutamicum, UniProt Q8NR03); experiment: Mtr-coupled NADPH oxidation at […] nm (thiol transferase assay); format: biochemical; conditions: 100 mM MSH, 300 μM NADPH, 5 μM Mtr, 50 mM potassium phosphate pH 7.6, 25 °C
T1 construct: gene Cgl1264; full length, 359 residues, 40,619 Da; pET28a His6 fusion from E. coli BL21(DE3), tag cleaved; monomer

CC(C)(C)OO = experiment: purified protein; conditions: 500 μM MSH, 4 μM Mtr, 250 μM NADPH, 1 mM EDTA, 50 mM Tris-HCl pH 7.5
MstX (NCgl1216) [2] = target: T2, MstX (NCgl1216) (Corynebacterium glutamicum, UniProt Q8NR03, C262S); experiment: MALDI-TOF MS of S-mycothiolated protein; format: binding; conditions: covalent; mixed disulfide at Cys67; formed with H2O2
T2 construct: gene Cgl1264

CC(C)(OO)c1ccccc1 = experiment: purified protein; conditions: 500 μM MSH, 4 μM Mtr, 250 μM NADPH, 1 mM EDTA, 50 mM Tris-HCl pH 7.5
purified protein = substrate: O=C1O[C@H]([C@@H](O)CO)C(=O)C1=O; experiment: purified protein; format: biochemical, Corynebacterium glutamicum; conditions: 100 mM MSH, 300 μM NADPH, 5 μM Mtr, 50 mM potassium phosphate pH 7.6, 25 °C

OCCSSCCO [HED]
Km (MstX (NCgl1216) [1]): 192 ± 30 µM

MstX (NCgl1216) (Corynebacterium glutamicum ATCC 13032)
Km (CC(C)(C)OO): 301.3 ± 46.62 µM | kcat (CC(C)(C)OO): 0.135 ± 0.006 s⁻¹

CC(=O)N[C@@H](CS)C(=O)NC1[C@@H](O[C@@H]2[C@H](O)[C@H](O)[C@@H](O)[C@H](O)[C@H]2O)O[C@H](CO)[C@@H](O)[C@@H]1O (stereo partly drawn) [MSH]
MALDI-TOF MS of S-mycothiolated protein (MstX (NCgl1216) [2]): Pure S-mycothiolated MstX:C262S were confirmed by Matrix-Assisted Laser Desorption/Ionization Time of Flight Mass Spectrometry

B1: MstX (NCgl1216) (Corynebacterium glutamicum ATCC 13032) (protein)
chain: MANTSSDWAGAPQNASADGEFVRDTNYIDDRIVADVPAGSEPIAQEDGTFHWPVEAGRYRLVAARACPWAHRTVITRRLLGLENVISLGLTGPTHDVRSWTFDLDPNHLDPVLQIPRLQDAYFNRFPDYPRGITVPALVEESSKKVVTNDYPSITIDFNLEWKQFHREGAPNLYPAELREEMAPVMKRIFTEVNNGVYRTGFAGSQEAHNEAYKRLWVALDWLEDRLSTRRYLMGDHITEADIRLYPTLVRFDAVYHGHFKCGRNKITEMPNLWGYLRDLFQTPGFGDTTDFTEIKQHYYITHAEINPTRIVPVGPDLSGFATPHGREKLGGSPFAEGVTLPGPIPAGEEVKNPEPFQK
notes: full length, 359 residues, 40,619 Da; pET28a His6 fusion from E. coli BL21(DE3), tag cleaved; monomer
Km (CC(C)(OO)c1ccccc1): 328.1 ± 33.27 µM | kcat (CC(C)(OO)c1ccccc1): 0.153 ± 0.005 s⁻¹ | Km (purified protein): 1115 ± 252 µM | kcat (purified protein): 573 ± 44.3 s⁻¹ | kcat/Km (purified protein): 571000 ± 410000 M⁻¹ s⁻¹
